In patent US20180155451A1 (published 2018):

T1: FcγRIIa R (extracellular domain, C-terminal His tag) (human, UniProt P12318 34-217)
T1 construct: extracellular domain; also called FcgRIIa R type; 2aR; not shown: His tag attached to the C terminus
T1 sequence (looked up): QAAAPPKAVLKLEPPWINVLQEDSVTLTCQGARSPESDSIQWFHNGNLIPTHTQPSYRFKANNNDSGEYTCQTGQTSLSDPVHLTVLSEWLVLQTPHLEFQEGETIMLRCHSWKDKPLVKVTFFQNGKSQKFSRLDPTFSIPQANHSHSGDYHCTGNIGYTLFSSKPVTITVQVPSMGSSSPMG

T2: FcγRIIb (extracellular domain, C-terminal His tag) (human, UniProt P31994 43-217)
T2 construct: extracellular domain; also called FcgRIIb; 2b; not shown: His tag attached to the C terminus
T2 sequence (looked up): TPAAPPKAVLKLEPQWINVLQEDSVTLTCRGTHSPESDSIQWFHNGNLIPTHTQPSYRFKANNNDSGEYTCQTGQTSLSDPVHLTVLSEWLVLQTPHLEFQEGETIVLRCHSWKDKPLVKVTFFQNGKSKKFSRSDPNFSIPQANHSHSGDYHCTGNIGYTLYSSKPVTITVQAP


How the values were obtained:
[1] = molecular target: T1, FcγRIIa R (extracellular domain, …); experiment: ratio of He/Con_2aR to He/Con_2b (FcγRIIb); SPR relative binding
Experimental: (§1) The heterodimerized antibodies He Abs in which one of the H chains was introduced with an alteration were assayed for their binding activities to each activating FcγR and inhibitory FcγR according to the method described in Example 4. […] The activating FcγRs in FIGS. 26, 27, 28, and 29 are FcγRIa, FcγRIIa (R), FcγRIIa (H), and FcγRIIIa, respectively.
(§2) Analysis of interaction between objective antibody and the FcγR was carried out using Biacore T100 (GE Healthcare). HBS-EP+ (GE Healthcare) was used as the running buffer, and the measurement temperature was set to 25° C. Chips produced by immobilizing the antigen peptide by the amine coupling method to a Series S Sencor Chip CM5 (GE Healthcare), or alternatively, chips produced by allowing preliminarily biotinylated antigen peptides to interact with and immobilize onto a Series S Sensor Chip SA (certified) (GE Healthcare) were used. Antibodies of interest were captured onto an antigen peptide-immobilized chip, and allowed to interact to each FcγR diluted with running buffer. To regenerate and repeatedly use the chip, the antibodies captured on the chip were washed off by reacting 10 mM glycine-HCl, pH 1.5.

[2] = molecular target: T1, FcγRIIa R (extracellular domain, …); experiment: SPR (Biacore), antibody captured on antigen-peptide chip, FcγR as analyte; relative binding amount
Experimental: as §1, §2

[3] = molecular target: T2, FcγRIIb (extracellular domain, …); experiment: as above
Experimental: as §1, §2

| He_2aR/2b (IIaR/IIb) [1] | He/Con_2aR [2] | He/Con_2b [3] | Binder |
| --- | --- | --- | --- |
| 1.38 | 53.9 % of control (GpH7-A5/GpH7-B3/GpL16-k0 = 100) | 39.1 % of control (GpH7-A5/GpH7-B3/GpL16-k0 = 100) | GpH7-A5/GpH7-B3 variant S239_12R/GpL16-k0 (antibody, human IgG1, kappa, Heterodimerized anti-glypican-3 IgG1; alteration in only one H chain (GpH7-B3 side); also called He Ab) heavy 1: not shown heavy 2: not shown light: DIVMTQSPLSLPVTPGEPASISCQASESLVHSNRNTYLHWYLQKPGQSPQLLIYKVSNRFSGVPDRFSGSGSGTDFTLKISRVEAEDVGVYYCSQNTHVPPTFGQGTKVEIERTVAAPSVFIFPPSDEQLKSGTASVVCLLNNFYPREAKVQWKVDNALQSGNSQESVTEQDSKDSTYSLSSTLTLSKADYEKHKVYACEVTHQGLSSPVTKSFNRGEC |
| 1.8 | 5.8 % of control (GpH7-A5/GpH7-B3/GpL16-k0 = 100) | 3.2 % of control (GpH7-A5/GpH7-B3/GpL16-k0 = 100) | GpH7-A5/GpH7-B3 variant D265_03V/GpL16-k0 (antibody, human IgG1, kappa, Heterodimerized anti-glypican-3 IgG1; alteration in only one H chain (GpH7-B3 side); also called He Ab) heavy 1: not shown heavy 2: not shown light: DIVMTQSPLSLPVTPGEPASISCQASESLVHSNRNTYLHWYLQKPGQSPQLLIYKVSNRFSGVPDRFSGSGSGTDFTLKISRVEAEDVGVYYCSQNTHVPPTFGQGTKVEIERTVAAPSVFIFPPSDEQLKSGTASVVCLLNNFYPREAKVQWKVDNALQSGNSQESVTEQDSKDSTYSLSSTLTLSKADYEKHKVYACEVTHQGLSSPVTKSFNRGEC |
| 1.79 | 5.6 % of control (GpH7-A5/GpH7-B3/GpL16-k0 = 100) | 3.2 % of control (GpH7-A5/GpH7-B3/GpL16-k0 = 100) | GpH7-A5/GpH7-B3 variant D265_04F/GpL16-k0 (antibody, human IgG1, kappa, Heterodimerized anti-glypican-3 IgG1; alteration in only one H chain (GpH7-B3 side); also called He Ab) heavy 1: not shown heavy 2: not shown light: DIVMTQSPLSLPVTPGEPASISCQASESLVHSNRNTYLHWYLQKPGQSPQLLIYKVSNRFSGVPDRFSGSGSGTDFTLKISRVEAEDVGVYYCSQNTHVPPTFGQGTKVEIERTVAAPSVFIFPPSDEQLKSGTASVVCLLNNFYPREAKVQWKVDNALQSGNSQESVTEQDSKDSTYSLSSTLTLSKADYEKHKVYACEVTHQGLSSPVTKSFNRGEC |
| 1.57 | 80.5 % of control (GpH7-A5/GpH7-B3/GpL16-k0 = 100) | 51.4 % of control (GpH7-A5/GpH7-B3/GpL16-k0 = 100) | GpH7-A5/GpH7-B3 variant P238_12R/GpL16-k0 (antibody, human IgG1, kappa, Heterodimerized anti-glypican-3 IgG1; alteration in only one H chain (GpH7-B3 side); also called He Ab) heavy 1: not shown heavy 2: not shown light: DIVMTQSPLSLPVTPGEPASISCQASESLVHSNRNTYLHWYLQKPGQSPQLLIYKVSNRFSGVPDRFSGSGSGTDFTLKISRVEAEDVGVYYCSQNTHVPPTFGQGTKVEIERTVAAPSVFIFPPSDEQLKSGTASVVCLLNNFYPREAKVQWKVDNALQSGNSQESVTEQDSKDSTYSLSSTLTLSKADYEKHKVYACEVTHQGLSSPVTKSFNRGEC |
| 2.57 | 3.4 % of control (GpH7-A5/GpH7-B3/GpL16-k0 = 100) | 1.3 % of control (GpH7-A5/GpH7-B3/GpL16-k0 = 100) | GpH7-A5/GpH7-B3 variant D265_07I/GpL16-k0 (antibody, human IgG1, kappa, Heterodimerized anti-glypican-3 IgG1; alteration in only one H chain (GpH7-B3 side); also called He Ab) heavy 1: not shown heavy 2: not shown light: DIVMTQSPLSLPVTPGEPASISCQASESLVHSNRNTYLHWYLQKPGQSPQLLIYKVSNRFSGVPDRFSGSGSGTDFTLKISRVEAEDVGVYYCSQNTHVPPTFGQGTKVEIERTVAAPSVFIFPPSDEQLKSGTASVVCLLNNFYPREAKVQWKVDNALQSGNSQESVTEQDSKDSTYSLSSTLTLSKADYEKHKVYACEVTHQGLSSPVTKSFNRGEC |
| 2.03 | 36.9 % of control (GpH7-A5/GpH7-B3/GpL16-k0 = 100) | 18.1 % of control (GpH7-A5/GpH7-B3/GpL16-k0 = 100) | GpH7-A5/GpH7-B3 variant P238_11K/GpL16-k0 (antibody, human IgG1, kappa, Heterodimerized anti-glypican-3 IgG1; alteration in only one H chain (GpH7-B3 side); also called He Ab) heavy 1: not shown heavy 2: not shown light: DIVMTQSPLSLPVTPGEPASISCQASESLVHSNRNTYLHWYLQKPGQSPQLLIYKVSNRFSGVPDRFSGSGSGTDFTLKISRVEAEDVGVYYCSQNTHVPPTFGQGTKVEIERTVAAPSVFIFPPSDEQLKSGTASVVCLLNNFYPREAKVQWKVDNALQSGNSQESVTEQDSKDSTYSLSSTLTLSKADYEKHKVYACEVTHQGLSSPVTKSFNRGEC |
| 1.44 | 73.1 % of control (GpH7-A5/GpH7-B3/GpL16-k0 = 100) | 50.7 % of control (GpH7-A5/GpH7-B3/GpL16-k0 = 100) | GpH7-A5/GpH7-B3 variant P238_14T/GpL16-k0 (antibody, human IgG1, kappa, Heterodimerized anti-glypican-3 IgG1; alteration in only one H chain (GpH7-B3 side); also called He Ab) heavy 1: not shown heavy 2: not shown light: DIVMTQSPLSLPVTPGEPASISCQASESLVHSNRNTYLHWYLQKPGQSPQLLIYKVSNRFSGVPDRFSGSGSGTDFTLKISRVEAEDVGVYYCSQNTHVPPTFGQGTKVEIERTVAAPSVFIFPPSDEQLKSGTASVVCLLNNFYPREAKVQWKVDNALQSGNSQESVTEQDSKDSTYSLSSTLTLSKADYEKHKVYACEVTHQGLSSPVTKSFNRGEC |
| 1.24 | 54.8 % of control (GpH7-A5/GpH7-B3/GpL16-k0 = 100) | 44.1 % of control (GpH7-A5/GpH7-B3/GpL16-k0 = 100) | GpH7-A5/GpH7-B3 variant S239_04F/GpL16-k0 (antibody, human IgG1, kappa, Heterodimerized anti-glypican-3 IgG1; also called He Ab) heavy 1: not shown heavy 2: not shown light: DIVMTQSPLSLPVTPGEPASISCQASESLVHSNRNTYLHWYLQKPGQSPQLLIYKVSNRFSGVPDRFSGSGSGTDFTLKISRVEAEDVGVYYCSQNTHVPPTFGQGTKVEIERTVAAPSVFIFPPSDEQLKSGTASVVCLLNNFYPREAKVQWKVDNALQSGNSQESVTEQDSKDSTYSLSSTLTLSKADYEKHKVYACEVTHQGLSSPVTKSFNRGEC |
